Measured values reported in the supplement of paper PMC9233669.
Fewer inactive variants are shown than the library holds.

Assays:
biotinyl-Phe-oxazolone = experiment: self-aminoacylation, catalytic enhancement (BFO) (fold over background); higher = more active; k-Seq, kA / k0A0; sequences stand for … in GGGAAUGGAUCCACAUCUACGAAUUC…UUCACUGCAGACUUGACGAAGCUG
How it was run: (§1)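 Each biotinyl-aminoacyl-oxazolone, at 2–1250 μM, was incubated with mutagenized RNA pools (0.43 μM) carrying a 21-nt variable region. The 50 μL reactions contained HEPES/NaCl/KCl/MgCl2/CaCl2 buffer with 5% acetonitrile at pH 6.9–7.0 and ran for 90 minutes at room temperature. After streptavidin capture, RNA was measured by qPCR in triplicate and by Illumina sequencing, and catalytic enhancement was calculated as median kA over the uncatalyzed rate from a pseudo-first-order fit of per-sequence fraction reacted.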

biotinyl-Ile-oxazolone = experiment: self-aminoacylation, catalytic enhancement (BIO) (fold over background); higher = more active; k-Seq, kA / k0A0; sequences stand for … in GGGAAUGGAUCCACAUCUACGAAUUC…UUCACUGCAGACUUGACGAAGCUG
How it was run: as §1

biotinyl-Met-oxazolone = experiment: self-aminoacylation, catalytic enhancement (BMO) (fold over background); higher = more active; k-Seq, kA / k0A0; sequences stand for … in GGGAAUGGAUCCACAUCUACGAAUUC…UUCACUGCAGACUUGACGAAGCUG
How it was run: as §1

biotinyl-Val-oxazolone = experiment: self-aminoacylation, catalytic enhancement (BVO) (fold over background); higher = more active; k-Seq, kA / k0A0; sequences stand for … in GGGAAUGGAUCCACAUCUACGAAUUC…UUCACUGCAGACUUGACGAAGCUG
How it was run: as §1

biotinyl-Leu-oxazolone = experiment: self-aminoacylation, catalytic enhancement (BLO) (fold over background); higher = more active; k-Seq, kA / k0A0; sequences stand for … in GGGAAUGGAUCCACAUCUACGAAUUC…UUCACUGCAGACUUGACGAAGCUG
How it was run: as §1

biotinyl-Trp-oxazolone = experiment: self-aminoacylation, catalytic enhancement (BWO) (fold over background); higher = more active; k-Seq, kA / k0A0; sequences stand for … in GGGAAUGGAUCCACAUCUACGAAUUC…UUCACUGCAGACUUGACGAAGCUG
How it was run: as §1

Row | Sequence | self-aminoacylation (biotinyl-Phe-oxazolone) | self-aminoacylation (biotinyl-Ile-oxazolone) | self-aminoacylation (biotinyl-Met-oxazolone) | self-aminoacylation (biotinyl-Val-oxazolone) | self-aminoacylation (biotinyl-Leu-oxazolone) | self-aminoacylation (biotinyl-Trp-oxazolone)
1 | CCACACUUUGAGCAAUCGGUC [Fam1B.1 aminoacylation ribozyme variant] | 0.83 | 1.05 | 0.858 | 1.06 | 0.96 | 0.721
2 | CCACAGUUCAAGCAAUGGGUC [Fam1B.1 aminoacylation ribozyme variant] | 0.542 | 1.04 | 1.03 | 1.05 | 0.763 | 0.726
3 | CCACAGUUCAAGCACUCGGUC [Fam1B.1 aminoacylation ribozyme variant] | 3.53 | 1.16 | 1.3 | 1.62 | 1.73 | 0.897
4 | CCACAUCAAACAAUCGGUCUG [Fam1A.1 aminoacylation ribozyme variant] | 1.46 | 1.13 | 1.04 | 1.07 | 1.05 | 1.98
5 | CCACAUUUCAAGCAAUCGGCC [Fam1B.1 aminoacylation ribozyme variant] | 3.98 | 3.63 | 4.62 | 3.56 | 3.19 | 4.96
6 | CCACAUUUCAAGCGAUCGGUC [Fam1B.1 aminoacylation ribozyme variant] | 1.52 | 1.54 | 1.31 | 1.64 | 1.62 | 1.16
7 | CCACAUUUCAAGCUAUCGGUC [Fam1B.1 aminoacylation ribozyme variant] | 1.03 | 1.4 | 1.1 | 1.33 | 1.16 | 1.03
8 | CCACAUUUCAAGUAAUCGGUC [Fam1B.1 aminoacylation ribozyme variant] | 2.1 | 1.21 | 1.03 | 1.05 | 1.14 | 1.77
9 | CCACAUUUCACGCAAUCGGUC [Fam1B.1 aminoacylation ribozyme variant] | 2.13 | 2.33 | 2.75 | 2.68 | 2.68 | 2.16
10 | CCACAUUUCAGGCAAUCGGUC [Fam1B.1 aminoacylation ribozyme variant] | 1.92 | 2.2 | 1.58 | 1.93 | 2.2 | 1.59
11 | CCACAUUUCCAGCAAUCGGUC [Fam1B.1 aminoacylation ribozyme variant] | 1.26 | 2.12 | 1.64 | 2.04 | 2.15 | 1.23
12 | CCACAUUUUAAGCAAUCGGUC [Fam1B.1 aminoacylation ribozyme variant] | 1.19 | 1.33 | 0.901 | 1.24 | 1.29 | 0.864
13 | CCACCCCUCAAGCAAUCGGUC [Fam1B.1 aminoacylation ribozyme variant] | 1.64 | 1.18 | 1.05 | 1.27 | 1.28 | 1.14
14 | CCACCCUGCAAGCAAUCGGUC [Fam1B.1 aminoacylation ribozyme variant] | 1.28 | 1.42 | 1.3 | 1.73 | 1.17 | 1.23
15 | CCACCCUUCAAGAAAUCGGUC [Fam1B.1 aminoacylation ribozyme variant] | 5.63 | 1.24 | 1.16 | 1.19 | 1.26 | 6.09
16 | CCACCCUUCAAGCAAGCGGUC [Fam1B.1 aminoacylation ribozyme variant] | 0.522 | 1.01 | 1.25 | 1.4 | 1.36 | 0.963
17 | CCACCCUUCAAGCAAUCGGUA [Fam1B.1 aminoacylation ribozyme variant] | 0.981 | 1.4 | 1.38 | 1.6 | 1.59 | 2.06
18 | CCACCCUUCGAGCAAUCGGUC [Fam1B.1 aminoacylation ribozyme variant] | 0.944 | 1.49 | 1.94 | 2.06 | 1.34 | 2.58
19 | CCACCCUUGAAGCAAUCGGUC [Fam1B.1 aminoacylation ribozyme variant] | 0.764 | 1 | 0.972 | 1.74 | 1.12 | 1.34
20 | CCACGCUUCAAGCAAUAGGUC [Fam1B.1 aminoacylation ribozyme variant] | 0.752 | 0.51 | 0.597 | 0.577 | 0.475 | 0.367
21 | CCACGCUUCAAGCAAUCGGUC [Fam1B.1 aminoacylation ribozyme variant] | 76.9 | 1.2 | 1.37 | 1.54 | 2.11 | 39.9
22 | CCACGCUUCAAGCAAUGGGUC [Fam1B.1 aminoacylation ribozyme variant] | 0.735 | 0.646 | 0.537 | 0.656 | 0.627 | 0.419
23 | CCACGCUUCAAGCACUCGGUC [Fam1B.1 aminoacylation ribozyme variant] | 0.769 | 0.855 | 0.938 | 1.29 | 0.819 | 0.81
24 | CCACGCUUCAUGCAAUCGGUC [Fam1B.1 aminoacylation ribozyme variant] | 0.756 | 0.812 | 0.782 | 1.06 | 0.749 | 0.507
25 | CCACUACAAACAAUCGGUCUG [Fam1A.1 aminoacylation ribozyme variant] | 1.38 | 1.02 | 0.764 | 1.12 | 1.14 | 0.734
26 | CCACUCCUCAAGCAAUCGGUC [Fam1B.1 aminoacylation ribozyme variant] | 1.26 | 1.07 | 0.986 | 1.23 | 0.845 | 1.26

Row | Sequence | self-aminoacylation (biotinyl-Phe-oxazolone) | self-aminoacylation (biotinyl-Ile-oxazolone) | self-aminoacylation (biotinyl-Met-oxazolone) | self-aminoacylation (biotinyl-Val-oxazolone) | self-aminoacylation (biotinyl-Leu-oxazolone) | self-aminoacylation (biotinyl-Trp-oxazolone)
27 | CCACUCUUAAAGCAAUCGGUC [Fam1B.1 aminoacylation ribozyme variant] | 0.711 | 1.06 | 0.911 | 1.01 | 0.993 | 0.693
28 | CCACUCUUCAAGCAAUCGGUG [Fam1B.1 aminoacylation ribozyme variant] | 23.1 | 3.43 | 4.76 | 3.46 | 7.12 | 5.05
29 | CCACUCUUCAAGCAAUGGGUC [Fam1B.1 aminoacylation ribozyme variant] | 0.667 | 0.877 | 0.953 | 0.859 | 0.911 | 0.647
30 | CCACUCUUCAAGCAAUUGGUC [Fam1B.1 aminoacylation ribozyme variant] | 0.992 | 0.831 | 0.63 | 0.95 | 0.729 | 0.809
31 | CCACUCUUCAAGCACUCGGUC [Fam1B.1 aminoacylation ribozyme variant] | 0.56 | 1.02 | 1.15 | 0.928 | 1.04 | 0.816
32 | CCACUCUUCAAGCCAUCGGUC [Fam1B.1 aminoacylation ribozyme variant] | 0.734 | 1.09 | 1.1 | 1.21 | 1.15 | 0.953
33 | CCACUUCAAACAAUCGGUCCG [Fam1A.1 aminoacylation ribozyme variant] | 38.5 | 1.08 | 1.18 | 1.49 | 1.59 | 16.8
34 | CCACUUCAAACAAUGGGUCUG [Fam1A.1 aminoacylation ribozyme variant] | 0.725 | 1.07 | 0.887 | 1.03 | 0.97 | 0.691
35 | CCACUUCAACCAAUCGGUCUG [Fam1A.1 aminoacylation ribozyme variant] | 73.2 | 1.68 | 1.7 | 2.01 | 2.76 | 36.4
36 | CCACUUCAGACAAUCGGUCUG [Fam1A.1 aminoacylation ribozyme variant] | 1.67 | 1.62 | 1.66 | 1.65 | 1.33 | 1.71
37 | CCACUUCUAACAAUCGGUCUG [Fam1A.1 aminoacylation ribozyme variant] | 0.834 | 0.858 | 0.758 | 0.897 | 0.875 | 0.68
38 | CCAGACUUCAAGCAAACGGUC [Fam1B.1 aminoacylation ribozyme variant] | 0.824 | 0.706 | 0.591 | 0.811 | 0.628 | 0.814
39 | CCAGACUUCAAGCAAUCCGUC [Fam1B.1 aminoacylation ribozyme variant] | 1.19 | 1.67 | 1.47 | 1.58 | 1.45 | 1.95
40 | CCAGACUUCAAGCAAUCGGUC [Fam1B.1 aminoacylation ribozyme variant] | 43.9 | 1.45 | 1.42 | 1.54 | 2.04 | 26
41 | CCAGACUUCAAGCAAUCGGUU [Fam1B.1 aminoacylation ribozyme variant] | 7.61 | 2.02 | 2.04 | 2.43 | 2.69 | 6.59
42 | CCAGACUUCAAGCAAUCGUUC [Fam1B.1 aminoacylation ribozyme variant] | 1.08 | 1.06 | 0.78 | 0.849 | 0.764 | 0.853
43 | CCAGACUUCAAGCAAUCUGUC [Fam1B.1 aminoacylation ribozyme variant] | 0.591 | 0.467 | 0.444 | 0.576 | 0.45 | 0.309
44 | CCAGACUUCAAGCAGUCGGUC [Fam1B.1 aminoacylation ribozyme variant] | 1.4 | 1.48 | 1.1 | 1.3 | 1.77 | 1.39
45 | CCAGACUUUAAGCAAUCGGUC [Fam1B.1 aminoacylation ribozyme variant] | 1.04 | 1.11 | 0.874 | 0.922 | 0.94 | 0.821
46 | CCAGUUCAAACAAUCGGUCUG [Fam1A.1 aminoacylation ribozyme variant] | 14.2 | 1.41 | 1.34 | 1.39 | 1.5 | 10.7
47 | CCAUACUUCAAGCAAUCGGGC [Fam1B.1 aminoacylation ribozyme variant] | 2.06 | 1.95 | 1.53 | 1.73 | 1.61 | 1.15
48 | CCAUACUUCAAGCAAUCGGUG [Fam1B.1 aminoacylation ribozyme variant] | 24.4 | 4.16 | 5.58 | 4.3 | 8.33 | 6.14
49 | CCAUACUUCAAGCAAUUGGUC [Fam1B.1 aminoacylation ribozyme variant] | 1.13 | 0.743 | 0.689 | 0.762 | 0.667 | 0.625
50 | CCAUACUUCCAGCAAUCGGUC [Fam1B.1 aminoacylation ribozyme variant] | 0.952 | 1.45 | 1.06 | 1.39 | 1.1 | 0.815
51 | CCAUUCUUCAAGCAAUCGGUC [Fam1B.1 aminoacylation ribozyme variant] | 2.79 | 1.04 | 0.939 | 0.976 | 0.992 | 1.68
